Laboratory results from US20030044814.
Positions count from the first letter of the chain named.

Target: Rab5 (recombinant, purified from E. coli)

B1: PRC17 (wild type) (protein)
chain: MDVVEVAGSWWAQEREDIIMKYEKGHRAGLPEDKGPKPFRSYNNNVDHLGIVHETELPPLTAREAKQIRREISRKSKWVDMLGDWEKYKSSRKLIDRAYKGMPMNIRGPMWSVLLNIEEMKLKNPGRYQIMKEKGKRSSEHIQRIDRDVSGTLRKHIFFRDRYGTKQRELLHILLAYEEYNPEVGYCRDLSHIAALFLLYLPEEDAFWALVQLLASERHSLQGFHSPNGGTVQGLQDQQEHVVATSQPKTMGHQDKKDLCGQCSPLGCLIRILIDGISLGLTLRLWDVYLVEGEQALMPITRIAFKVQQKRLTKTSRCGPWARFCNRFVDTWARDEDTVLKHLRASMKKLTRKQGDLPPPAKPEQGSSASRPVPASRGGKTLCKGDRQAPPGPPARFPRPIWSASPPRAPRSSTPCPGGAVREDTYPVGTQGVPSPALAQGGPQGSWRFLQWNSMPRLPTDLDVEGPWFRHYDFRQSCWVRAISQEDQLAPCWQAEHPAERVRSAFAAPSTDSDQGTPFRARDEQPCAPTSGPCLCGLHLESSQFPPGF
- GTP hydrolysis assay (percentage of non-hydrolysed [gamma-32P]GTP remaining bound to filters): Addition of wild type PRC17 resulted in a 30% reduction of GTP-bound Rab5

B2: mutant form PRC17 (Arg107 and Asp148 substituted by alanines) (protein)
chain: B1 chain with R107A, D148A
- GTP hydrolysis assay (percentage of non-hydrolysed [gamma-32P]GTP remaining bound to filters): addition of the mutant form PRC17 had no effect on Rab5 GTP-hydrolysis
